# Measurements taken from the supplement of paper PMC9112550, “Optimization of the antimicrobial peptide Bac7 by deep mutational scanning” (BMC Biology, 2022).
# Tested on: Escherichia coli TOP10
# Test: shrunken log2 fold change of peptide-encoding DNA abundance (4.5 h post-induction vs induction); higher = less antimicrobial activity (less host growth inhibition)
# Conditions: time post-induction: 4.5 h; library: site-saturation at positions 5, 18, 19, 20
# 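Further: peptides expressed intracellularly from a pBAD plasmid library in pooled LB shake-flask culture, induced with 0.3% L-arabinose, DNA abundance read by NGS, three biological replicates, DESeq2 with apeglm shrinkage.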
row,Sequence,shrunken log2 fold change
1,RRIRKRPPRLPRPRPRPKRGPRP,0.781
2,RRIRTRPPRLPRPRPRPLPPPRP,0.333
3,RRIRQRPPRLPRPRPRPAMWPRP,0.579
4,RRIRGRPPRLPRPRPRPDKHPRP,0.0564
5,RRIRLRPPRLPRPRPRPDWMPRP,-0.152
6,RRIRGRPPRLPRPRPRPACPPRP,0.46
7,RRIRTRPPRLPRPRPRPNINPRP,-0.812
8,RRIRWRPPRLPRPRPRPIYQPRP,-0.288
9,RRIRRRPPRLPRPRPRPMKTPRP,0.0796
10,RRIRYRPPRLPRPRPRPDMLPRP,-0.0808
11,RRIRGRPPRLPRPRPRPGEKPRP,1.4
12,RRIRCRPPRLPRPRPRPKSYPRP,-0.443
13,RRIRCRPPRLPRPRPRPIYDPRP,-0.867
14,RRIRIRPPRLPRPRPRPDNQPRP,-1.03
15,RRIRHRPPRLPRPRPRPDVKPRP,-0.0186
16,RRIRLRPPRLPRPRPRPFFYPRP,-0.343
17,RRIRCRPPRLPRPRPRPYWLPRP,-0.669
18,RRIRHRPPRLPRPRPRPPMNPRP,-0.543
19,RRIRIRPPRLPRPRPRPNHNPRP,-0.518
20,RRIRRRPPRLPRPRPRPSFPPRP,0.0188
21,RRIRGRPPRLPRPRPRPPHNPRP,0.585
22,RRIRYRPPRLPRPRPRPVISPRP,0.0433
23,RRIRARPPRLPRPRPRPAYVPRP,-0.118
24,RRIRLRPPRLPRPRPRPRVSPRP,-0.0787
25,RRIRNRPPRLPRPRPRPDQPPRP,0.00646

row,Sequence,shrunken log2 fold change
1,RRIRVRPPRLPRPRPRPGHPPRP,0.146
2,RRIRARPPRLPRPRPRPSDWPRP,0.402
3,RRIRCRPPRLPRPRPRPTFQPRP,-0.0555
4,RRIRSRPPRLPRPRPRPPWRPRP,0.614
5,RRIRQRPPRLPRPRPRPSGEPRP,0.0168
6,RRIRWRPPRLPRPRPRPCRQPRP,-0.134
7,RRIRRRPPRLPRPRPRPFTLPRP,-0.2
8,RRIRRRPPRLPRPRPRPISAPRP,0.122
9,RRIRARPPRLPRPRPRPEICPRP,1.01
10,RRIRGRPPRLPRPRPRPGKQPRP,0.0206
11,RRIRDRPPRLPRPRPRPKPEPRP,0.0415
12,RRIRPRPPRLPRPRPRPPTHPRP,0.317
13,RRIRARPPRLPRPRPRPMQWPRP,0.442
14,RRIRIRPPRLPRPRPRPHQKPRP,-0.0756
15,RRIRSRPPRLPRPRPRPTSLPRP,0.074
16,RRIRWRPPRLPRPRPRPSQRPRP,-0.0741
17,RRIRKRPPRLPRPRPRPSSDPRP,0.246
18,RRIRYRPPRLPRPRPRPPGTPRP,-0.146
19,RRIRGRPPRLPRPRPRPKMEPRP,0.582
20,RRIRKRPPRLPRPRPRPDMTPRP,1.34
21,RRIRARPPRLPRPRPRPSNGPRP,-0.318
22,RRIRWRPPRLPRPRPRPMPHPRP,0.323
23,RRIRPRPPRLPRPRPRPIERPRP,0.157
24,RRIRLRPPRLPRPRPRPSTKPRP,-0.0833
25,RRIRNRPPRLPRPRPRPLKCPRP,0.0144

row,Sequence,shrunken log2 fold change
1,RRIRVRPPRLPRPRPRPIIVPRP,0.0713
2,RRIRIRPPRLPRPRPRPMRFPRP,-0.0444
3,RRIRQRPPRLPRPRPRPVRLPRP,-0.0825
4,RRIRSRPPRLPRPRPRPTQNPRP,0.375
5,RRIRMRPPRLPRPRPRPWKEPRP,0.0155
6,RRIRQRPPRLPRPRPRPEERPRP,0.104
7,RRIRERPPRLPRPRPRPQAQPRP,-0.0773
8,RRIRCRPPRLPRPRPRPHMNPRP,-0.843
9,RRIRCRPPRLPRPRPRPKIFPRP,-0.0936
10,RRIRARPPRLPRPRPRPNENPRP,0.177
11,RRIRDRPPRLPRPRPRPHFDPRP,0.141
12,RRIRMRPPRLPRPRPRPNFNPRP,-0.23
13,RRIRMRPPRLPRPRPRPADNPRP,0.0259
14,RRIRFRPPRLPRPRPRPKCNPRP,-0.238
15,RRIRQRPPRLPRPRPRPFITPRP,-0.569
16,RRIRYRPPRLPRPRPRPTDEPRP,-0.00133
17,RRIRQRPPRLPRPRPRPKLLPRP,-0.153
18,RRIRTRPPRLPRPRPRPHCTPRP,-0.298
19,RRIRRRPPRLPRPRPRPFFWPRP,0.381
20,RRIRKRPPRLPRPRPRPITHPRP,-0.0971
21,RRIRCRPPRLPRPRPRPTFMPRP,-0.513
22,RRIRERPPRLPRPRPRPTNAPRP,-0.0659
23,RRIRYRPPRLPRPRPRPGYVPRP,-1.05
24,RRIRARPPRLPRPRPRPVNQPRP,-0.0386
25,RRIRHRPPRLPRPRPRPYAYPRP,-0.596

row,Sequence,shrunken log2 fold change
1,RRIRCRPPRLPRPRPRPWLCPRP,-0.182
2,RRIRKRPPRLPRPRPRPFPLPRP,0.289
3,RRIRRRPPRLPRPRPRPDGGPRP,0.149
4,RRIRRRPPRLPRPRPRPKWYPRP,0.0824
5,RRIRARPPRLPRPRPRPRPWPRP,0.499
6,RRIRFRPPRLPRPRPRPMNMPRP,-0.546
7,RRIRFRPPRLPRPRPRPHNTPRP,-0.796
8,RRIRIRPPRLPRPRPRPAPIPRP,-0.0266
9,RRIRRRPPRLPRPRPRPDHNPRP,0.121
10,RRIRKRPPRLPRPRPRPELCPRP,-0.021
11,RRIRCRPPRLPRPRPRPRYQPRP,-0.319
12,RRIRKRPPRLPRPRPRPWTFPRP,0.489
13,RRIRWRPPRLPRPRPRPFYIPRP,-0.632
14,RRIRWRPPRLPRPRPRPMWQPRP,0.016
15,RRIRPRPPRLPRPRPRPDQPPRP,-0.0572
16,RRIRCRPPRLPRPRPRPCKQPRP,-0.0357
17,RRIRVRPPRLPRPRPRPWFMPRP,-0.537
18,RRIRPRPPRLPRPRPRPYRCPRP,-0.173
19,RRIRIRPPRLPRPRPRPSGNPRP,0.0322
20,RRIRERPPRLPRPRPRPQFYPRP,-0.452
21,RRIRHRPPRLPRPRPRPSYFPRP,-0.628
22,RRIRPRPPRLPRPRPRPYFRPRP,-0.463
23,RRIRDRPPRLPRPRPRPNHAPRP,-0.31
24,RRIRHRPPRLPRPRPRPQVWPRP,-0.112
25,RRIRMRPPRLPRPRPRPVHVPRP,-0.0337

row,Sequence,shrunken log2 fold change
1,RRIRQRPPRLPRPRPRPNTVPRP,-0.369
2,RRIRKRPPRLPRPRPRPEGDPRP,1.24
3,RRIRHRPPRLPRPRPRPSHMPRP,-0.856
4,RRIRARPPRLPRPRPRPRTRPRP,1.05
5,RRIRRRPPRLPRPRPRPDKQPRP,0.0803
6,RRIRMRPPRLPRPRPRPKDVPRP,-0.000921
7,RRIRYRPPRLPRPRPRPPFCPRP,-0.332
8,RRIRCRPPRLPRPRPRPGKEPRP,-0.0657
9,RRIRFRPPRLPRPRPRPDLYPRP,-0.053
10,RRIRSRPPRLPRPRPRPRYEPRP,-0.12
11,RRIRQRPPRLPRPRPRPATHPRP,-0.28
12,RRIRARPPRLPRPRPRPSWVPRP,-0.174
13,RRIRERPPRLPRPRPRPITCPRP,0.0303
14,RRIRIRPPRLPRPRPRPTGDPRP,0.109
15,RRIRIRPPRLPRPRPRPYWLPRP,-0.413
16,RRIRDRPPRLPRPRPRPAQLPRP,-0.0667
17,RRIRNRPPRLPRPRPRPEYHPRP,0.0524
18,RRIRQRPPRLPRPRPRPEFEPRP,-0.0193
19,RRIRHRPPRLPRPRPRPRLLPRP,-0.113
20,RRIRMRPPRLPRPRPRPVMLPRP,-0.28
21,RRIRDRPPRLPRPRPRPAMEPRP,-0.0517
22,RRIRCRPPRLPRPRPRPGCVPRP,0.248
23,RRIRQRPPRLPRPRPRPEQFPRP,0.0588
24,RRIRLRPPRLPRPRPRPTKVPRP,-0.0842
25,RRIRVRPPRLPRPRPRPTWPPRP,0.446

row,Sequence,shrunken log2 fold change
1,RRIRPRPPRLPRPRPRPGFAPRP,0.318
2,RRIRHRPPRLPRPRPRPNSGPRP,-0.194
3,RRIRTRPPRLPRPRPRPWAAPRP,-0.0363
4,RRIRHRPPRLPRPRPRPRVMPRP,0.0966
5,RRIRLRPPRLPRPRPRPFGPPRP,0.0996
6,RRIRIRPPRLPRPRPRPLHWPRP,-0.138
7,RRIRTRPPRLPRPRPRPFMCPRP,-0.126
8,RRIRNRPPRLPRPRPRPWINPRP,-0.0185
9,RRIRTRPPRLPRPRPRPDAGPRP,0.11
10,RRIRTRPPRLPRPRPRPGLPPRP,0.189
11,RRIRYRPPRLPRPRPRPMNIPRP,-0.124
12,RRIRERPPRLPRPRPRPEIKPRP,-0.0374
13,RRIRTRPPRLPRPRPRPFQHPRP,-0.214
14,RRIRLRPPRLPRPRPRPHRHPRP,-0.361
15,RRIRKRPPRLPRPRPRPAKRPRP,2.15
16,RRIRVRPPRLPRPRPRPECCPRP,0.0234
17,RRIRPRPPRLPRPRPRPGTHPRP,-0.017
18,RRIRLRPPRLPRPRPRPPRQPRP,0.688
19,RRIRQRPPRLPRPRPRPYIYPRP,-0.0737
20,RRIRHRPPRLPRPRPRPLSDPRP,-0.0615
21,RRIRMRPPRLPRPRPRPTFDPRP,0.558
22,RRIRMRPPRLPRPRPRPCVLPRP,-2.47e-05
23,RRIRVRPPRLPRPRPRPMRVPRP,0.0609
24,RRIRERPPRLPRPRPRPTLSPRP,0.0115
25,RRIRQRPPRLPRPRPRPWHHPRP,-0.00612
